Results on 3 molecules are retold here after paper doi:10.1101/2025.03.28.645892 (2025).

What is called Kd is a measure of binding affinity in units of concentration. Read a low Kd as higher affinity.

In experiment [1] the target is T1, Arabidopsis thaliana UFD1B (Arabidopsis thaliana, UniProt Q9SJV0 1-340).
T1 chain: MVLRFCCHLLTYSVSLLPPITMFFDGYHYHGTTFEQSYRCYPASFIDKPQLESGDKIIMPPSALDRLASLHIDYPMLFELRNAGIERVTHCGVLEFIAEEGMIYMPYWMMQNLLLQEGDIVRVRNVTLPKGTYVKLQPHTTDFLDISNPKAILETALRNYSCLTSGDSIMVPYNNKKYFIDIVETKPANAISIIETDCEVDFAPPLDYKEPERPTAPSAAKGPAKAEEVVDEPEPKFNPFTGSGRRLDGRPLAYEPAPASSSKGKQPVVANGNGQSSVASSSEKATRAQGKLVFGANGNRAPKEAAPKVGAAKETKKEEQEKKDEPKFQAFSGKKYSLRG
As to the kind of experiment: MST; pH 7.5; AMPPNP.

In experiment [2] the target is T1, Arabidopsis thaliana UFD1B. As to the kind of experiment: ITC; AMPPNP; AtCDC48A saturated with AtNPL4. A general note: ITC needs no label: the signal is the heat of the interaction.
In experiment [3] the target is T1, Arabidopsis thaliana UFD1B. Description: MST; pH 6.5; AMPPNP.
Experiment [4] addresses T1, Arabidopsis thaliana UFD1B. Description: MST; pH 6.5.
Experiment [5] deals with T1, Arabidopsis thaliana UFD1B. Description: MST; pH 7.5.
The next experiment concerns the target T2, AtNPL4B UBXL domain (Arabidopsis thaliana, UniProt Q9LYC2 1-89).
T2 chain: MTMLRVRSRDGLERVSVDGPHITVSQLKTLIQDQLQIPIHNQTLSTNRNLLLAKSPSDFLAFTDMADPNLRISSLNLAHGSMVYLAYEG
Description: ITC; AMPPNP.

The target of the next experiment is T3, AtNPL4B F105A (Arabidopsis thaliana, UniProt Q9LYC2 1-413, F105A).
T3 sequence: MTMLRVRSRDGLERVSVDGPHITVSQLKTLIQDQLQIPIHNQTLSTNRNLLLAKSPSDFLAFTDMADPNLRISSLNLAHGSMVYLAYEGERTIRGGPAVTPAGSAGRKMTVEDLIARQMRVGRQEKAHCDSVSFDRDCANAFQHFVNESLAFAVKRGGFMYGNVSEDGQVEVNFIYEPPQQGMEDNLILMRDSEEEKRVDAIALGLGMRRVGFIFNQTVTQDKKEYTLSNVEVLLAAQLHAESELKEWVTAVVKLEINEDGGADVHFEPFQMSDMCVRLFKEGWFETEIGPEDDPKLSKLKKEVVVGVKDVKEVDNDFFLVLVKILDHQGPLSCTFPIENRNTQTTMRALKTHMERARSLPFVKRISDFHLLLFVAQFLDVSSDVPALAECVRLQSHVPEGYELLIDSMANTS
Description: ITC; AMPPNP.

B1: AtCDC48A saturated with AtNPL4 (complex)
chain 1: MSTPAESSDSKSKKDFSTAILERKKSPNRLVVDEAINDDNSVVSLHPATMEKLQLFRGDTILIKGKKRKDTVCIALADETCEEPKIRMNKVVRSNLRVRLGDVISVHQCPDVKYGKRVHILPVDDTVEGVTGNLFDAYLKPYFLEAYRPVRKGDLFLVRGGMRSVEFKVIETDPAEYCVVAPDTEIFCEGEPVKREDEERLDDVGYDDVGGVRKQMAQIRELVELPLRHPQLFKSIGVKPPKGILLYGPPGSGKTLIARAVANETGAFFFCINGPEIMSKLAGESESNLRKAFEEAEKNAPSIIFIDEIDSIAPKREKTNGEVERRIVSQLLTLMDGLKSRAHVIVMGATNRPNSIDPALRRFGRFDREIDIGVPDEIGRLEVLRIHTKNMKLAEDVDLERISKDTHGYVGADLAALCTEAALQCIREKMDVIDLEDDSIDAEILNSMAVTNEHFHTALGNSNPSALRETVVEVPNVSWNDIGGLENVKRELQETVQYPVEHPEKFEKFGMSPSKGVLFYGPPGCGKTLLAKAIANECQANFISVKGPELLTMWFGESEANVREIFDKARQSAPCVLFFDELDSIATQRGGGSGGDGGGAADRVLNQLLTEMDGMNAKKTVFIIGATNRPDIIDSALLRPGRLDQLIYIPLPDEDSRLNIFKAALRKSPIAKDVDIGALAKYTQGFSGADITEICQRACKYAIRENIEKDIEKEKRRSENPEAMEEDGVDEVSEIKAAHFEESMKYARRSVSDADIRKYQAFAQTLQQSRGFGSEFRFENSAGSGATTGVADPFATSAAAAGDDDDLYN
chain 2: MMMLRIRSRDGLERVTAEGAHITVSQLKTLIADQLQIPLHKQTLSTNRDLLLAKTPADLLAFTDLTDPNLPLSSLNLGHGSMLYLAYDGERSIPGAPPVTPAGSFGRKMTVDDLIARQMRVTRQETSHCDSVSFDRDAANAFQHYVNESLAFAVKRGGFMYGTVTEEGQVEVDFIYEPPQQGTEANLILMRDADEEKRVDAIAMGLGMRRVGFIFNQTVVQDKTEYTLSNAEVLQAAELHAESELKEWVTAVVKLEVNEDGGADVHFEAFQMSDMCIRLFKEEWFETEIMPDDDPKLSKMKKEVVVGVKDLKEVDNDFFLVLVRILDHQGPLSSTFPIENRSSRATMRALKTHLDRAKSLPLVKKMSDFHLLLFVAQFLDVSSDVPALAECVRLQSPVPEGYALLIESMANTC
modifications: Alexa-488 dye label in the MST experiments only
As for B1, the Kd in experiment [1] worked out at 4.6 µM; in experiment [2], 3.8 µM; in experiment [3], 2.9 µM.

B2: Arabidopsis thaliana NPL4 (natural protein)
chain: B1 chain 2
modifications: Alexa-488 dye label in the MST experiments only
As to B2, the Kd in experiment [4] was 75.4 µM; in experiment [5], 256 µM.

B3: Arabidopsis thaliana CDC48A (enzyme)
chain: B1 chain 1
Take B3: the Kd in the experiment with AtNPL4B UBXL domain came to 3.2 µM; in the experiment with AtNPL4B F105A it was 4.6 µM.
